Measured values reported in the nanobody polyreactivity screen of Harvey et al. (2022).

Experiment: yeast display, Sf9 membrane polyspecificity reagent, FACS + sequencing; frameworks hold sequencing errors
Procedure, shortened: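 A nanobody's polyreactivity label depends on the gate it was sorted from. Yeast display cells were stained with 10% biotinylated, detergent-solubilized Sf9 membrane reagent for 1 hour at 4 °C, enriched on streptavidin microbeads and sorted by FACS. The low and high (top ~1%) gates were set on anti-HA fluorescence for expression and streptavidin fluorescence for reagent binding.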

Sequence	polyreactivity (PSR sort gate)
QVQLVESGGGLVQAGGSLRLSCAASGFIFWDYAMGWYRQAPGKERELVAAISDSGGDTYYADSVKGRFTISRDNSKNTDYLQMNSLKPEDTAVYYCAADVELWVFRGQQYDYWGQGTQVTVSS	low polyreactivity
QVQLVESGGGLVQAGGSLRLSCAASGFIFWENAMGWSRQAPGKERELVAAISKSGTRTYYADSVKGRFTISRDNAKNTVYLQMNSLKPEDTAVYYCAAEGSGYEYYYWGQGTQVTVSS	high polyreactivity
QVQLVESGGGLVQAGGSLRLSCAASGFIFWKNAMGWYRQAPGKERELVAAISWSGGRTYYADSVKGRFTISRDNAKNTVYLQMNSLKPEDTGVYYCDASVGPFPVRGDYWGQGTQVTVSS	low polyreactivity
QVQLVESGGGLVQAGGSLRLSCAASGFIFWKYAKGWYRQAPGKERELVAAISTTGGSTYYADSVKGRFTNSRDNAKNTVYLQMNSLKPEDTAVYYCAAQVGRGYEVYPVYKYGYWGQGTQVTVSS	high polyreactivity
QVQLVESGGGLVQAGGSLRLSCAASGFIFWRNAMGWDRQAPGKDRELVATISRSGGSTYYADSVKGRFTISRDTAKNTVYLQMNSLKPEDTAVYYCATVPWYYWGTHRTLYDYWGQGTQVTVSS	high polyreactivity
QVQLVESGGGLVQAGGSLRLSCAASGFIFWSYAMGWYRQAPGKERELVAAIDLTGGSTYYADSVKGRFTISRDNAKNTVYFQMNSLKPEDTAVYYCNADGDTYAFTNSDSGFDYWGQGTQVTVSS	low polyreactivity
QVQLVESGGGLVQAGGSLRLSCAASGFIFWSYAMGWYRQAPGKERELVAVITSGASTYYADSVKGRFTISRDNAKNTVYLQMNSLKPEDTAVYYSAAEYWVPAWKFGYEYWGQGTQVTVSS	high polyreactivity
QVQLVESGGGLVQAGGSLRLSCAASGFIFWTNTMGWYRQAPGKERELVAAISRSGGSTYYADSVKGRFTISRDNAKNTVYLQMNSLKPEDTAVYYCAKGYRGYSYGYWGQGTQVTVSS	high polyreactivity
QVQLVESGGGLVQAGGSLRLSCAASGFIFWVYALGWYRQAPGKERELVAAITSGGGSTYYADSVKGRFTISRDNAKNSVYLQMNSLKPEDTAVYYCNSVSWEGYDFDYWGQGTQVTVSS	high polyreactivity
QVQLVESGGGLVQAGGSLRLSCAASGFIFWWYAMGWYRQAPGKERELVAGITGSGGTTYYADSVKGRFTISRDNAKNTVYLQMNSLKPEDTAVYYCAARSRSRPKYDYWGQGTQVTVSS	high polyreactivity
QVQLVESGGGLVQAGGSLRLSCAASGFIFWWYAMGWYRQAPGKERELVASISWSGGSTYYADSVKGRFTISRDNAKNTVYLQMNSLKPEDTAVYYCAASRARTIPGPHTNFNYWGQGTQVTVSS	high polyreactivity
QVQLVESGGGLVQAGGSLRLSCAASGFIFWWYAMGWYRQAPGKERELVATITASVGSTNYADSVKGRFTISRDTAKNTVYLQMNSLKPEDTAVYYCATDIIGAIRDWDHTRMDYWGQGTQVTVSS	low polyreactivity
QVQLVESGGGLVQAGGSLRLSCAASGFIFWWYGMGWYRQSPGKEREFVAAITQSGSTYYADSVKGRFTISRDNAKNTVYLQMNSLKPEDTAVYYCAAVVGRRLYPRYDYWGQGTQVTVSS	high polyreactivity
QVQLVESGGGLVQAGGSLRLSCAASGFIFWYYAMGWSRQAPGKERELVAAISGSGGRTYYADSVKGRFTISRDNAKNTVYLQLNSLKPEDTAVYYCNARRAAYYHRARELDYWGEGTQVTVSS	high polyreactivity
QVQLVESGGGLVQAGGSLRLSCAASGFIFWYYAMGWYRQAPGKERELVAAITTSDGSTYYADSVKGRFTISRDNAKNTVYLQMNSLKPEDTAGYYCAADSYYVSYGYYYCGQGTQVTVSS	low polyreactivity
QVQLVESGGGLVQAGGSLRLSCAASGFIFYAYAMGWDRQAPGKERELVAAISRGGGSTYYADSVKGRFTISRDNAKNTVYLQMNSLKPEDTAVYYCAADFYYDRDVDFWGQGTQVTVSS	high polyreactivity

Sequence	polyreactivity (PSR sort gate)
QVQLVESGGGLVQAGGSLRLSCAASGFIFYDYAMGWYRQAPGKERELVAAISSGGSTNYADSVKGRFTISRDNAKNTVYLQMNSLKPEDTAVYYCNVDYGVHVPPRDYWGQGTQVTVSS	low polyreactivity
QVQLVESGGGLVQAGGSLRLSCAASGFIFYDYAMGWYRQAPGKERELVASISWSSGSTYYADSVKGRFTISRDNAKNTVYLQMNSLKPEDTAVYYWAADGYPLQLYNYWGLGTQVTVSS	low polyreactivity
QVQLVESGGGLVQAGGSLRLSCAASGFIFYDYAMGWYRQGPGKERELGAAISSTAFGTYYADSVKGRFTISRDKAKNTVYLQMNILKPEDTAVYYCAAAVSPHSEGFGEYNDWGQGTQVTVSS	low polyreactivity
QVQLVESGGGLVQAGGSLRLSCAASGFIFYDYDMGCYRQAPGKERELVAAITYSGGSTYYADSVKGRFTISRDNAKNTVYLQMNSLKPEDTAVYYCAAVKSRYAEAVDYYYWGQGTQVTVSS	low polyreactivity
QVQLVESGGGLVQAGGSLRLSCAASGFIFYDYDMGWYRQAPGKERELVAAISDGGSTNYADSVKGRFTISRDNAKNTVYLQMNSLKPEDTAVYYCAKDGFVYYDYFQYIEYDYWGQGTQVTVSS	low polyreactivity
QVQLVESGGGLVQAGGSLRLSCAASGFIFYFNAMGWYRQAPGKERELVAAISASGGRTYYADSVKGRFTISRDNAKNTVYLQMNSLIPEDTAVYYCAADIRGYDYWGQGTQVTVSS	high polyreactivity
QVQLVESGGGLVQAGGSLRLSCAASGFIFYGYTMGWYRQAPGKERELVARISRRGGSTYYADSVKGRFTISRDNAKNTVYLQMNSLKPEDTAVYYCAAELRRLFYAYGYWGQGTQVTVSS	low polyreactivity
QVQLVESGGGLVQAGGSLRLSCAASGFIFYKNAMGWYRQAPGKERELVAAISSRGGSTSYADSVKGLFTISRDNAKNTVYLQMNSLKQEDTAVYYCAAYPDYSYFYWGQGTQVTVSS	high polyreactivity
QVQLVESGGGLVQAGGSLRLSCAASGFIFYKYAMGWYRQAPGKERELVAAITSSAGSTYYADSVKGRFTISRDNAKNTVYLQMNSLKPEDTAVYYCAADFHVDYVYWGQGTQVTVSS	high polyreactivity
QVQLVESGGGLVQAGGSLRLSCAASGFIFYLNAMGWYRQAPGKERELVAAISGRGGRTYYADSVKGRFTISRDNAKNTVYLQMNSLKPEDTAVYYCAAQYVPSRYGYWGQGTQVTVSS	high polyreactivity
QVQLVESGGGLVQAGGSLRLSCAASGFIFYLYTMGWYRQAPGKERELVAAIDYSGASTNYADSVKGRFTISRDNAKNTVYVQRNSQKPEDTAVYYCAVNPEVLYHSWTLDYWGQGTQVTVSS	low polyreactivity
QVQLVESGGGLVQAGGSLRLSCAASGFIFYNYAMGLYRQAPGKERELVAAISASGGRTYYADSVKGRFTISRDNAKNTVYLQMNRLKPEDTAVYYCNARVNYKGYDYWGQGTQVTVSS	high polyreactivity
QVQLVESGGGLVQAGGSLRLSCAASGFIFYNYAMGWYRQAPGKERELVAAITSRGGSTYYADSVKGRFTISRDNAKNTVYLQMNSLKPEDTAVYYCAAVKVGDARFVRNDYWGQGTQVTVSS	high polyreactivity
QVQLVESGGGLVQAGGSLRLSCAASGFIFYPNAMGWYRQAPGKERELVAVITGGGSTYYADSVKGLFTISRDNAKNTVYLQMNSLKPEDPAVYYCAARTLRAGYRASGVRRDYWRQGTQVTVSS	high polyreactivity
QVQLVESGGGLVQAGGSLRLSCAASGFIFYRNAMGWYRQAPGKERELVAAISQRGGRTYADSVKGRFTISRDNAKNTVYLQMNSLIPEDTAVYYCAADYLDSTYGYVYGWDDYWGQGTQVTVSS	low polyreactivity
